Assay: soluble on expression in E. coli; label from the status in PepcDB or PDB records

| Sequence | soluble on expression in E. coli |
| --- | --- |
| MAKYIEIANTLRTSISNHEYKNNDPFPDQQALSKKFSTSRMTIQKALNILKTEGLIYSKQGSGTFVSSNADLIEQTDLEINQYIGTTDLFGKTHKINSKIIKFTIRYPDKSEQNALRISKKDLIYDITRLRIVDEEPYVLEYTKMPVKVIPGISDDILKKSIYHYIKSDLNLKIGSAFRKIRADKPNLFDKKFLNCKNEDPILEITQTAFLNSDIPFEFSRVRYRYDKGNMVVFVKSSFER | not soluble |
| MALELSDIRQQITQIDRSLLKLLSERHRLAFDVVRSKEISQKSLRDVEREQQLLQELVQFAENENYQLEAQYITSIFQKIIEDSVLTQQVYLQNKLNEQRNQNLHIAFLGKRGSYSNLAARNYAARYQKQFVELGCQSFEQVFEKVQTGEADFGVLPLENTTSGAINEVYDLLQHTDLSLVGELAYPIKHCVLVNDKTDLNQIDTLYSHPQVIQQCSQFIHSLDRVHIEYCESSSHAMQLVASLNKPNIAALGNEDGGKLYGLSVLKTNIANQENNITRFIVVAKEPREVSSQIPTKTLLLMTTSQQAGALVDALLVFKKHQINMTKLESRPIYGKPWEEMFYLEIEANIHHPDTKQALEELKNYSNYLKILGCYPSEIVKPVSV | not soluble |
| MALGPLVTGLYDVQAFKFGDFVLKSGLSSPIYIDLRGIVSRPRLLSQVADILFQTAQNAGISFDTVCGVPYTALPLATVICSTNQIPMLIRRKETKDYGTKRLVEGTINPGETCLIIEDVVTSGSSVLETVEVLQKEGLKVTDAIVLLDREQGGKDKLQAHGIRLHSVCTLSKMLEILEQQKKVDAETVGRVKRFIQEAHHHHHH | soluble |
| MALLEICCYSMECALTAQRNGADRIELCAAPKEGGLTPSFGVLRSVREHITIPVHPIIRPRGGDFYYTDGEFAAMLEDIRLVRELGFPGLVTGVLTVDGDVDMSRMEKIMAAAGPLAVTFHRAFDMCANPFNALKNLADAGVARVLTSGQKADAAQGLSIIMELIAQGDAPTIMAGAGVRANNLQNFLDAGVREVHSSAGVLLPSPMRYRNQGLSMSADIQADEYSRYRVEGAAVAEMKGIIVRHQAKLEHHHHHH | soluble |
| MALLLVMGIPASGKSTFRRKIQTAHRELLESTSFDDFRMMRTRSSDKNARQTRKSFECHVESCISESTSKIYVIEDIFYLKSMRHPFQKIAKRHGLQFGIIFLKVGIVEALRRNSHRTGIEKQKNETIRKIFEKMEDPDEILENSIVLETDEVEIDVEVVMNKLKFDFTAKKPIVPEVSLKKSHIQKPPPPSKLESLDVLTRRLVSELMQNDKTMNGRKLSDARKKLLIDLSGNLEISNENDPKFLYDLKLKLIEFYDK | not soluble |
| MALNDNPIPKSVPLHPKSGKYFHNLHARDLSNIYQQCYKQIDETINQLVDSTSPSTIGIEEQVADITSTYKLLSTYESESNSFDEHIKDLKKNFKQSSDACPQIDLSTWDKYRTGELTAPKLSELYLNMPTPEPATMVNNTDTLKILKVLPYIWNDPTCVIPDLQNPADEDDLQIEGGKIELTCPITCKPYEAPLISRKCNHVFDRDGIQNYLQGYTTRDCPQAACSQVVSMRDFVRDPIMELRCKIAKMKESQEQDKRSSQAIDVL | soluble |
| MALPKFELLSLADNTVGWGPLASSSSADEPVPFQQFNKADRIGRVADWIGVDRFYRRGNERYNERVYGSAANAGSQFDYIHGMDEHNFQLVDTSKPMARNPQRNFRVRQMHLRKMMQKENEKREMVNQSTNLRMKRSIAKEQQRAFKMWQRRGGNARQGQRGQGGRFGGDRPKERLPSVQVRPEWVVLEEMNLSAFSKLALPNIPGGDDIGDHQYGSLQYYDKTIDRVSVKNSIPLQRCAGVFYNVTTTEDPVIQELAQGGAGNVFGTDIILATLMTAPRSVYSWDIVAYRVGDKLFFDKRNTRDILNPVETLTVSETSAEPPSFDGNGINNAKDLATEAFYINQNFRRQVVKRNDAGFTFKNARAPFEDEETGESGTAYKYRKWNLGNGVDGKPVELVCRTELDGVIHGLGNETQTLTIKAFNEWDSTQSGGVDWRTKLDVQKGAVMATEIKNNSAKVAKWTLQALLAGSDTMKLGYVSRNNARSTQNHSILLTQYVKPTEFASNIALNMDNCWGILRCVIDSCMKQKPGKYLLMKDPQSPVIRLYSLPEGTFESERESSDEENSDDDQ | not soluble |
| MALPTIESFKKLSSEDKRQVLDHLFEPCNTLSNFVFIKVLHQQYNTYPEFINLVRKELLEFLKQSETFQSQYQGEISPVINEIISAHPRLGEPKKETLSVHSNNEQKTLNNDPEIIKKLKELNAAYEKTFPGLRYVVFVNGRSRHEIMDNMQKRIERNDINLERVEAFNAMCDIALDRANKLGIKL | not soluble |
| MALREFSSVKVGDQLPEKTYPLTRQDLVNYAGVSGDLNPIHWDDEIAKVVGLDTAIAHGMLTMGIGGGYVTSWVGDPGAVTEYNVRFTAVVPVPNDGKGAELVFNGRVKSVDPESKSVTIALTATTGGKKIFGRAIASAKLA | soluble |
| MALRRVKNPEMWNDDLYNLMFRFTKPNGTFATFTAASAVRKGLESAGFNVTKRKGFGKKRECLSGLKIQSKSTALSTPWYLAQPAKMEKQDVAIIGGGIASLCAAISLIKRGAKVTIYCEDDALALNASGNKQGAFYPQLSDDNALTVDFYLHAFSYGRQLLDWAIEQNIVFEHEFCGVALCAYNEKSAVKLTKISQLGLPNEIFQMLSAEQLSEKVGLPLNCEGGWIEQGAWLAPRQFVQNAFSFLEKQGVVIKTAQKITALSQLEKGWELKNMQGQKYCHEVVILANGHKITDFVQTEKLPLYPIRGQVSQIPTSENLLKLKSVLCYDGYLTPANQLKTSHCIGASMFVIMLIAILANKNNKKINKNSSKISPNLGRKMWIHQIISLVLEHHHHHH | not soluble |
| MAMNVTEIVLKKPVTAHNEMLHVLELREPTYDEIEALGFPFIISGEGSIKLDSQVALKYIPLLAGIPCSSAAQMAKLDIFKTSMQILRFFTQSETGSTSGNDSTMLPGSGN | not soluble |
| MANAFGLSLGTALRRDPAEGPVRPQRPLGRLIWLHAPTRDSARPMAELGRRIILDEGFPVLLTTHVPVSSGGILIVQPPPPDTPAAVAAFLDHWRPDAAFMAEGELRPSLINSAFDRNVPLALVDGAAPRILPGRESWWPGQMRNLLAKFRHIFTLDEAAARAFRKAGSSSHVTQVAGRLEEGSLALPCTEAERAALARLLAPRQVWLAAGLPIEEEAAAIAAHHAALKLAHRMLLIVVPQEPDRAAAFAARCEAEGWKVARRAADEEPDADTEVFVADGMAELGLWYRLAPVTWLGGSLSVGCVLDPLEAASLGSALIHGPHFGPHGATLARLSAARASLPVASARGLAEALADLLAPDRVARLAHAGWAVASEGTEVTDRMVALAGRLVEREALEHHHHHH | not soluble |
| MANGTVKIAEQSGVLPIAGDKIVLITARGSGRWIIPKGYIEKGMSPAESAAKEAWEEAGIVGSVRHEEIGTYSYRRPSGIFSVRIYPLEVESLLEQWDEMHVRQRRLVTPSEAIEMICLKELRSLITDYLIKRFDFLEHHHHHH | not soluble |
| MANSAGSMIKEFCAENFTKIPQAIQKGANRIELCDNLAVGGTTPSTGVIEEVLAYAGEHSVPVMTIIRPRGGNFVYNDIELKIMHTDLIEAKKLGTDGIVIGCLTEDGWLDEEALDLFIETAEGLQITFHMAFDALSKENQFKAIDWLAERGVTRILTHGGPAGTPIEDNFDHLKELIVYADQRILILPGGGISTENVQTVMDTLKVTEVHGTKIVLEHHHHHH | not soluble |
| MANYPKELPAQTQSRQPGIESEMNPSPVYEYEDYKGADKLKGKVALITGGDSGIGRAVSVAYAKEGADIAIVYKDEHEDAEETKKRVEQEGVKCLLIAGDVGEEEFCNEAVEKTVKELGGLDILVNNAGEQHPKESIKDITSEQLHRTFKTNFYSQFYLTKKAIDYLKPGSAIINTTSINPYVGNPTLIDYTATKGAINAFTRTMAQALVKDGIRVNAVAPGPIWTPLIPATFPEETVAQFGQDTPMGRPGQPVEHVGCYVLLASDESSYMTGQTLHVNGGNFVT | soluble |
| MAPKDNTWYTGAKLGFSQYHDTGFINNNGPTHENQLGAGAFGGYQVNPYVGFEMGYDFLGRMPYKGSVENGAYKAQGVQLTAKLGYPITDDLDIYTRLGGMVFRADTKSNVYGKNHDTGVSPVFAGGVEYAITPEIATRLEYQFTNNIGDAHTIGTRPDNGMLSLGVSYRFGQGEAA | soluble |

— the DeepSol protein solubility set
